In article PMC3413157:
Read-outs that look alike come from different tables or passages of the source.

Legend:
Test in all cases: EMSA
[1] = molecular target: Dna2 (hDna2);FEN1 (hFEN1) (human;human, UniProt P51530;P39748 1-1060;1-380, |)
Dna2 (hDna2) [2] = molecular target: T1, Dna2 (hDna2) (human, UniProt P51530 1-1060)
T1 sequence: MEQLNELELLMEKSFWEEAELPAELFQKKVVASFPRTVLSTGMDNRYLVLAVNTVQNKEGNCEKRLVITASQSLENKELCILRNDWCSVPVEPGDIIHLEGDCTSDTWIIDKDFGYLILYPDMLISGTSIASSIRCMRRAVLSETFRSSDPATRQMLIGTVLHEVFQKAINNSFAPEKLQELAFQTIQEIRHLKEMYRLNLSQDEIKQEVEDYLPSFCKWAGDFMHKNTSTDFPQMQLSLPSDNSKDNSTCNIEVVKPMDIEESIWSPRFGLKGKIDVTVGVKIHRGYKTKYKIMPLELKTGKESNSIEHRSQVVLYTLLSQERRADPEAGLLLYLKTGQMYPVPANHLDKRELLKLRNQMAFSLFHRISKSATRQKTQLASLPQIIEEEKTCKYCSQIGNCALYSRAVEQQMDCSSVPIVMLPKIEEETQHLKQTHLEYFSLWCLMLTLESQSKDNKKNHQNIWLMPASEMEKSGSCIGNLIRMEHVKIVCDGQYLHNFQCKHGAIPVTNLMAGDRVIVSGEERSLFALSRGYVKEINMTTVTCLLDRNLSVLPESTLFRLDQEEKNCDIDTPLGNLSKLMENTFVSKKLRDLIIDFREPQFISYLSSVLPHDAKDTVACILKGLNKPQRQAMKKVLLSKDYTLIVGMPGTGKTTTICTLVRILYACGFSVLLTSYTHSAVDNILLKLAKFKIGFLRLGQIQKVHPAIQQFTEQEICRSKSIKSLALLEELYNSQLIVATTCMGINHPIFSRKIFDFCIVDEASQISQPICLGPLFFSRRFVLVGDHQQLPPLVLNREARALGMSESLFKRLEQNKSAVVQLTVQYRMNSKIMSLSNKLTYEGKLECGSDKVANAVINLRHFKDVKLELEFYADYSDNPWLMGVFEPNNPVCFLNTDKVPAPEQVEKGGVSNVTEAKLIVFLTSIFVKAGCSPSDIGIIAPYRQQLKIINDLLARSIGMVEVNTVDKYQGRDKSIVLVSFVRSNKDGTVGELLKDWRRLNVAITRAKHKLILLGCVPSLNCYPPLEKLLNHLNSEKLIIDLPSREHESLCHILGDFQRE

FEN1 (hFEN1) [3] = molecular target: T2, FEN1 (hFEN1) (human, UniProt P39748 1-380)
T2 sequence (P39748 whole entry): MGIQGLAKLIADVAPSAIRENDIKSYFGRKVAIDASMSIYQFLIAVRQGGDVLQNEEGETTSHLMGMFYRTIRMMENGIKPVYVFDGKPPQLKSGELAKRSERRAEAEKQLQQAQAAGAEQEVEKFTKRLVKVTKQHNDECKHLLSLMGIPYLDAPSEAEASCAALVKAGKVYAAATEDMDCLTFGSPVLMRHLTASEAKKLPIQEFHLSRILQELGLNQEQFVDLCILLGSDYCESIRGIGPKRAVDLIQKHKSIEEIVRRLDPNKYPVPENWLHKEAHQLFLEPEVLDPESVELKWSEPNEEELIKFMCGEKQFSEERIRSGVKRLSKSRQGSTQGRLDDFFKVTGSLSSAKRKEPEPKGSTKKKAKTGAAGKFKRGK

FEN1 (hFEN1) [4] = molecular target: T2, FEN1 (hFEN1); remark: listed apart in the source
Dna2 (hDna2) [5] = molecular target: T1, Dna2 (hDna2); remark: listed apart in the source
Dna2 (hDna2) [6] = molecular target: T1, Dna2 (hDna2); remark: listed apart in the source
Dna2 (hDna2) [7] = molecular target: T1, Dna2 (hDna2); remark: listed apart in the source
Dna2 (hDna2) [8] = molecular target: T1, Dna2 (hDna2); remark: listed apart in the source
FEN1 (hFEN1) [9] = molecular target: T2, FEN1 (hFEN1); remark: listed apart in the source
Dna2 (hDna2) [10] = molecular target: T1, Dna2 (hDna2); remark: listed apart in the source

Dna2 (hDna2);FEN1 (hFEN1), sequence (P39748 whole entry, one chain of several): as the sequence (P39748 whole entry) above

B1: 30 nt double flap (U2:T3:D2.30) (mixed)
DNA 1: TTCTACTTCCAATTGATACGCGCTATAACCCCCGTCCACCCGACGCCACCTCCTGC
DNA 2: GCAGGAGGTGGCGTCGGGTGGACGGGATTGAAATTTAGGCTGGCACGGTCG
DNA 3: CGACCGTGCCAGCCTAAATTTCAATT
B1: binds [1]; binds (Dna2 (hDna2) [2]); binds (FEN1 (hFEN1) [3]).

B2: 30 nt 5'-tail (T4:D2.30) (mixed)
DNA 1: TTCTACTTCCAATTGATACGCGCTATAACCCCCGTCCACCCGACGCCACCTCCTGC
DNA 2: GCAGGAGGTGGCGTCGGGTGGACGGG
B2: no binding (FEN1 (hFEN1) [4]); binds (Dna2 (hDna2) [5]).

B3: 30 nt flap, 2 nt gap (U4:T3:D2.30) (mixed)
DNA 1: TTCTACTTCCAATTGATACGCGCTATAACCCCCGTCCACCCGACGCCACCTCCTGC
DNA 2: GCAGGAGGTGGCGTCGGGTGGACGGGATTGAAATTTAGGCTGGCACGGTCG
DNA 3: CGACCGTGCCAGCCTAAATTTCA
B3: binds (Dna2 (hDna2) [6]).

B4: 30 nt flap, 5 nt gap (U3:T3:D2.30) (mixed)
DNA 1: TTCTACTTCCAATTGATACGCGCTATAACCCCCGTCCACCCGACGCCACCTCCTGC
DNA 2: GCAGGAGGTGGCGTCGGGTGGACGGGATTGAAATTTAGGCTGGCACGGTCG
DNA 3: CGACCGTGCCAGCCTAAATT
B4: binds (Dna2 (hDna2) [7]).

B5: 15 nt 5'-tail (T4:D2.15) (mixed)
DNA 1: ATACGCGCTATAACCCCCGTCCACCCGACGCCACCTCCTGC
DNA 2: GCAGGAGGTGGCGTCGGGTGGACGGG
B5: no binding (FEN1 (hFEN1) [4]).

B6: 2 nt double flap (U1:T1:D1.2) (mixed)
DNA 1: GTCGTTTTACAACGACGTGACTGGG
DNA 2: GCCCAGTCACGTCGTTGTAAAACGGGTCGTGACTGGGAAAACCCTGGCG
DNA 3: CGCCAGGGTTTTCCCAGTCACGACCA
B6: no binding (Dna2 (hDna2) [8]).

B7: 5 nt double flap (U1:T1:D1.5) (mixed)
DNA 1: GCCGTCGTTTTACAACGACGTGACTGGG
DNA 2: GCCCAGTCACGTCGTTGTAAAACGGGTCGTGACTGGGAAAACCCTGGCG
DNA 3: CGCCAGGGTTTTCCCAGTCACGACCA
B7: no binding (Dna2 (hDna2) [8]); binds (FEN1 (hFEN1) [9]).

B8: 10 nt double flap (U1:T1:D1.10) (mixed)
DNA 1: CACTGGCCGTCGTTTTACAACGACGTGACTGGG
DNA 2: GCCCAGTCACGTCGTTGTAAAACGGGTCGTGACTGGGAAAACCCTGGCG
DNA 3: CGCCAGGGTTTTCCCAGTCACGACCA
B8: binds (FEN1 (hFEN1) [9]).

B9: 30 nt double flap (U1:T1:D1.30) (mixed)
DNA 1: TTCACGCCTGTTAGTTAATTCACTGGCCGTCGTTTTACAACGACGTGACTGGG
DNA 2: GCCCAGTCACGTCGTTGTAAAACGGGTCGTGACTGGGAAAACCCTGGCG
DNA 3: CGCCAGGGTTTTCCCAGTCACGACCA
B9: binds (FEN1 (hFEN1) [9]); binds (Dna2 (hDna2) [10]).

B10: 20 nt double flap (U1:T1:D1.20) (mixed)
DNA 1: TTAGTTAATTCACTGGCCGTCGTTTTACAACGACGTGACTGGG
DNA 2: GCCCAGTCACGTCGTTGTAAAACGGGTCGTGACTGGGAAAACCCTGGCG
DNA 3: CGCCAGGGTTTTCCCAGTCACGACCA
B10: binds (FEN1 (hFEN1) [9]).

B11: 15 nt double flap (U1:T1:D1.15) (mixed)
DNA 1: TAATTCACTGGCCGTCGTTTTACAACGACGTGACTGGG
DNA 2: GCCCAGTCACGTCGTTGTAAAACGGGTCGTGACTGGGAAAACCCTGGCG
DNA 3: CGCCAGGGTTTTCCCAGTCACGACCA
B11: binds (FEN1 (hFEN1) [9]).
